Data as given in patent US5906819.

Columns and labels:
[1] = molecular target: T1, myosin light chain (chicken) (UniProt P02612)
T1 sequence: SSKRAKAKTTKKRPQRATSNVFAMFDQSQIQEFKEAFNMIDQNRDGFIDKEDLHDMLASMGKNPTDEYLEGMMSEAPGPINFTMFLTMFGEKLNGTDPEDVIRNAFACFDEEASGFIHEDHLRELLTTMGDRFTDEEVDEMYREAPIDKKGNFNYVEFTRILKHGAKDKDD

- specific activity with S6 peptide as a substrate (mol per minute per 1 mol GST-Rho-kinase) (S6 peptide): 41
- apparent Km for myosin light chain [1]: 0.91 µM
- phosphorylation of intact myosin (mol phosphorylation per 1 mol myosin) (intact myosin (chicken)): 1
B1: GST-Rho-kinase (enzyme)
chain: PTGKMPGAPEAVSGDGAGASRQRKLEALIRDPRSPINVESLLDGLNPLVLDLDFPALRKNKNIDNFLNRYEKIVKKIRGLQMKAEDYDVVKVIGRGAFGEVQLVRHKASQKVYAMKLLSKFEMIKRSDSAFFWEERDIMAFANSPWVVQLFCAFQDDKYLYMVMEYMPGGDLVNLMSNYDVPEKWAKFYTAEVVLALDAIHSMGLIHRDVKPDNMLLDKHGHLKLADFGTCMKMDETGMVHCDTAVGTPDYISPEVLKSQGGDGYYGRECDWWSVGVFLFEMLVGDTPFYADSLVGTYSKIMDHKNSLCFPEDAEISKHAKNLICAFLTDREVRLGRNGVEEIKQHPFFKNDQWNWDNIRETAAPVVPELSSDIDSSNFDDIEDDKGDVETFPIPKAFVGNQLPFIGFTYYRENLLLSDSPSCKENDSIQSRKNEESQEIQKKLYTLEEHLSTEIQAKEELEQKCKSVNTRLEKVAKELEEEITLRKNVESTLRQLEREKALLQHKNAEYQRKADHEADKKRNLENDVNSLKDQLEDLKKRNQNSQIS
